Test results as given in article PMC10141391, “Structural Analysis of Bacillus subtilis Sigma Factors” (Microorganisms, 2023).

Target: T1, SigE^17–133 (B. subtilis SigE residues 17–133) (B. subtilis, 15N-labelled)
T1 construct: Cloned BamHI/XhoI into pET28-TxrA (His tag, thioredoxin, TEV site)
T1 chain: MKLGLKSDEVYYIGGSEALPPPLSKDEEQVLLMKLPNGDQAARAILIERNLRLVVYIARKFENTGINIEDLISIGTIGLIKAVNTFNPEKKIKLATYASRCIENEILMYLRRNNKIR
Experiment: NMR titration; 1H-15N HSQC chemical shift perturbation; 100 uM 15N-labelled SigE 17-133 alone and with a 2-fold excess of unlabelled CsfB A48E; 298 K, 700 MHz; 50 mM HEPES pH 7.5, 150 mM KCl, 0.5 mM TCEP
Conditions: both partners purified

binding result: binds
B1: CsfB^A48E (natural protein, B. subtilis)
chain: MDETVKLNHTCVICDQEKNRGIHLYTKFICLDCERKVISTSTSDPDYEFYVKKLKSIHTPPLYS
notes: Anti-sigma factor CsfB (Gin), B. subtilis, with the stabilising mutation A48E; In pNIC28 (TEV-cleavable N-terminal His tag); also called CsfB/Gin; Gin; source: E. coli BL21(DE3)pLysS, purified (IMAC, SEC)
